We go through ten molecules from publication PMC6833008 (Molecules, 2019).

“And” between values parts separate entries of the source, which are not always exact repeats. Identical values can stand only once. Like-named read-outs stand apart in the source and are kept apart here. Ends that are not written are not given here.

In general, Kd refers to the concentration at which binding is half-saturated. In general, koff refers to the rate constant with which the complex falls apart. The term kon denotes a measure of how fast the partners come together.

The target of experiment [1] is T1, Recombinant human PD-1 protein (Homo sapiens, UniProt Q15116).
T1 construct: purchased Abcam (Cambridge, UK)
As to the kind of experiment: SPR binding of peptides or PD-L1 to immobilized PD-1 (Biacore X100). How it is done: Peptides of lyophilized powder were dissolved in sterile milli-Q H2O to a stock concentration of 1 mM for use in surface plasmon resonance (SPR) analysis. […] All synthetic peptides and proteins were equally packaged to avoid repeated freeze–thaw cycles.
The HBS-EP buffer (10×) was diluted 10-fold with sterile deionized water, filtered through a 0.22-μm membrane filter, and degassed immediately before the experiment as running buffer with a flow rate of 30 μL/min for the instrument system. The purified active PD-1 was diluted by 10 mM sodium acetate solution at pH 4.5, resulting in a protein concentration of 50 μg/mL. Coupling conditions were determined by protein isoelectric points and previous reports. The diluted protein was immobilized on the surface of a CM5 sensor chip via the primary amine group, employing a standard Amine Coupling Kit, and the target immobilization level was 5000 response units (RUs). The flow cell 1 […] any modification was used as a reference to correct the system error. The RU values were collected, and all the binding affinity data was calculated by kinetic models (1:1 interaction) within Biacore X100 Evaluation Software.
Each concentration was injected into the channel for 120 and 150 s for dissociation. Then, 10 mM glycine 3.0 or glycine 2.5 was utilized to regenerate the sensor chip surface. The equilibrium dissociation constant (KD) was calculated to evaluate the ability of peptides to interact with PD-1.
A general note: SPR reads the build-up and loss of mass on a sensor chip optically.

Experiment [2] concerns the target T2, Recombinant human PD-1 protein (programmed cell death protein 1) (human, UniProt Q15116 25-170).
T2 construct: programmed cell death protein 1 (PD-1), human, recombinant, bought from Abcam; the results speak of the immobilised ectodomain; also called hPD-1; CD279; source: bought: Abcam
The experiment is described as follows: SPR; Biacore X100, 25 °C; PD-1 amine-coupled to a CM5 chip (target 5000 RU); peptide as analyte in HBS-EP buffer pH 7.4 (2-64 μM WANG-003, 1-16 μM WANG-004, 1.5625-100 μM WANG-005), 30 μL/min, 120 s injection, 150 s dissociation; regeneration 10 mM glycine 3.0 or 2.5; 1:1 kinetic model; three single runs. To be noted: both partners purified.
T2 sequence (Q15116 25-170): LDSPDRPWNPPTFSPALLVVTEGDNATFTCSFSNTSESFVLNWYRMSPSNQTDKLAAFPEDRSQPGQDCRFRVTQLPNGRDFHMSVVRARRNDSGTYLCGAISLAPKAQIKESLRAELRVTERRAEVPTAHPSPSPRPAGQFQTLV

Experiment [3] has as its target T3, Recombinant human PD-1 protein (programmed cell death protein 1) (human, UniProt Q15116 25-170).
T3 construct: Programmed cell death protein 1 (PD-1), human, recombinant, bought from Abcam; the results call the immobilised protein an ectodomain; No catalogue number, limits or tags are printed; The UniProt ID Q15116 is printed for the docking model, not for the bought protein; also called CD279; purified active PD-1; source: bought: Abcam
As to the kind of experiment: SPR; Biacore X100, 25 °C; PD-1 immobilised on a CM5 chip by amine coupling (target 5000 RU); peptides as analytes in HBS-EP (2–64 μM WANG-003, 1–16 μM WANG-004, 1.5625–100 μM WANG-005, 62.5–1000 μM WANG006, 3.125–100 μM WANG007), 120 s injection and 150 s dissociation; 30 μL/min; 1:1 kinetic model. The conditions noted are these: both partners purified.
T3 sequence (Q15116 25-170): as above

T1 sequence (Q15116 25-170 limits assumed): as the sequence (Q15116 25-170) above

Regarding “FRWWR-NH2 (C-terminus assumed) [WANG-004, FRWWR-NH2]”, the figures for the “binding affinity to PD-1 (in words)” value in experiment [1] and in experiment [1] (listed as FRWWR-NH2) were “moderate affinity” and “moderate binding affinity”, respectively.

Consider “KRWWR-NH2 (C-terminus assumed) [WANG-003, KRWWR-NH2]”, for which the “binding affinity to PD-1 (in words)” value in experiment [1] was “moderate affinity”.

With RRWQWR-NH2 [WANG-005, RRWQWR-NH2], the “binding affinity to PD-1 (in words)” value in experiment [1] was “moderate affinity”.

For YVAE-NH2 [WANG-007], the “binding affinity to PD-1 (in words)” value in experiment [1] is listed as “did not show binding affinities”.

On to YVAM-NH2 [WANG-006], for which the “binding affinity to PD-1 (in words)” value in experiment [1] is on record as “did not show binding affinities”.

B1: WANG-003 (KRWWR-NH2) (peptide)
peptide: KRWWR-NH2
notes: in-house synthetic peptide; source: synthetic peptide
Regarding B1, in experiment [2], the Kd was 2100 nM and 4610 nM and 3350 nM; the koff is 0.00258 s⁻¹ and 0.00446 s⁻¹ and 0.00365 s⁻¹; the association rate constant (kon) was 1230 M⁻¹ s⁻¹ and 967 M⁻¹ s⁻¹ and 1090 M⁻¹ s⁻¹.

B2: WANG-004 (FRWWR-NH2) (peptide)
peptide: FRWWR-NH2
notes: as for B1
Consider B2, for which, in experiment [2], the equilibrium dissociation constant (Kd) is 1380 nM and 2070 nM and 1450 nM; the koff was 0.00383 s⁻¹ and 0.00438 s⁻¹ and 0.00401 s⁻¹; the on-rate (kon) is 2770 M⁻¹ s⁻¹ and 2120 M⁻¹ s⁻¹ and 2760 M⁻¹ s⁻¹. Take RRWQWR-NH2 [WANG-005 (RRWQWR-NH2)]: the kon in experiment [2] is 658 M⁻¹ s⁻¹ and 436 M⁻¹ s⁻¹ and 494 M⁻¹ s⁻¹.

B3: WANG-003 (peptide)
peptide: KRWWR-NH2
notes: in-house synthetic peptide; also called KRWWR-NH2; KRWWR; source: synthetic peptide (solid phase, HPLC purified)
As for B3, the dissociation constant Kd in experiment [3] amounted to 3350 ± 1030 nM.

B4: WANG-004 (peptide)
peptide: FRWWR-NH2
notes: in-house synthetic peptide; also called FRWWR-NH2; FRWWR; source: synthetic peptide (solid phase, HPLC purified)
On to B4, for which the Kd in experiment [3] is 1630 ± 309 nM.
